These results are taken from article PMC9295563, “A Reduced F420-Dependent Nitrite Reductase in an Anaerobic Methanotrophic Archaeon” (Journal of Bacteriology, 2022).

Data set [1] has as its target T1, ANME2c-FsrII-6D (uncultured archaeon, UniProt Z9BHN8L6W9). Put plainly: inhibition of F420H2-dependent nitrite reduction, F420H2 oxidation at […] nm. Type of data set: biochemical, uncultured ANME-2c archaeon. Further details: gene fsr; full-length two-domain protein (Fsr-N 1-341, Fsr-C 356-642); expressed from pDS701 in Methanosarcina acetivorans WWM60; F420-Sepharose purified, no tag mentioned; siroheme, FAD, about four [Fe4-S4] per subunit. Particulars: read-out: apparent Ki.

The next data set deals with T2, O=S(O)O.
T2 construct: full-length two-domain protein (Fsr-N 1-341, Fsr-C 356-642); expressed from pDS701 in Methanosarcina acetivorans WWM60; F420-Sepharose purified, no tag mentioned; siroheme, FAD, about four [Fe4-S4] per subunit
The experiment in a line: purified protein. Type of data set: biochemical, uncultured ANME-2c archaeon. Particulars: 408 μM reduced methyl viologen, 10-500 μM sulfite, with DTT, pH 7 phosphate, anaerobic, kcat in electrons transferred per subunit.

Data set [2] deals with CN1C=C[C](c2cc[n+](C)cc2)C=C1. Put plainly: purified protein. It counts as biochemical, uncultured ANME-2c archaeon. Particulars: pH 7.0.
The subject of a further data set is O=NO. The experiment in a line: purified protein. To be noted: 40 μM F420H2, 2-100 μM nitrite, 0.5 mM DTT, pH 7 phosphate, anaerobic, kcat in electrons transferred per subunit.
Data set [3] deals with T1, ANME2c-FsrII-6D. The experiment in a line: F420H2 oxidation at […] nm. Further details: gene fsr. Particulars: read-out: Km (μM) for the varied substrate; 500 μM nitrite, 1-80 μM F420H2, 0.5 mM DTT, pH 7 phosphate, anaerobic; kcat in electrons transferred per subunit.

T1 sequence (Z9BHN8L6W9 1-642): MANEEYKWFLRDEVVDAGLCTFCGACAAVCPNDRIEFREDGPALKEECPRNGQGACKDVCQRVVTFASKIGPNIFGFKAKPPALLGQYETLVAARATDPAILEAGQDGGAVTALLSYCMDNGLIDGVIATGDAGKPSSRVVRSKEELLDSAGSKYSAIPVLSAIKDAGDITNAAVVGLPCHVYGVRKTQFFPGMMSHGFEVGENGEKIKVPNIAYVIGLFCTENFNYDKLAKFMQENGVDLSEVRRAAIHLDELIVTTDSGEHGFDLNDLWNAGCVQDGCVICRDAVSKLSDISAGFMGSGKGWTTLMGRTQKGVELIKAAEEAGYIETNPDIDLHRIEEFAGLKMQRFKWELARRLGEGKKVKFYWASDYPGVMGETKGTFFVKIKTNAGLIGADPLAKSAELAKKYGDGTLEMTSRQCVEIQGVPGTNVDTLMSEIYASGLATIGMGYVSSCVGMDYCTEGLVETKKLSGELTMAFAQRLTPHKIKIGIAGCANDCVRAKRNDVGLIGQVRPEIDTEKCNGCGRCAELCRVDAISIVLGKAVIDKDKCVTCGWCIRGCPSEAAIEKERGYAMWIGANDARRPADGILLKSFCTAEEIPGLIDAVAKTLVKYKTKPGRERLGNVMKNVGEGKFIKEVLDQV

Consider `O=S(O)O` [sulfite], for which the Ki at ANME2c-FsrII-6D [1] turned out to be 130 ± 86 µM.
As to ANME2c-FsrII-6D (uncultured archaeon), the Km (usually the concentration of substrate that gives half-maximal velocity) in the data set with O=S(O)O came to 129 ± 20 µM; in data set [2], 137 ± 26 µM; with O=NO it was 5 ± 1 µM. Moreover, the kcat (commonly the maximal rate divided by the concentration of active sites) is 1.07 ± 0.0667 s⁻¹ with O=S(O)O and 0.3 ± 0.0167 s⁻¹ in the data set with O=NO. Further, the figures for the kcat/Km (with O=S(O)O; in data set [2]; with O=NO) were 0.5 ± 0.1 (HSO3^−), 0.5 ± 0.1 (MV^·+) and 4 ± 1 (NO2^−), respectively.
For the molecule F420H2, the Km on ANME2c-FsrII-6D [3] was 14 ± 2 µM.
